B1: GDF15: Growth and Differentiation Factor 15, TGF-β superfamily ligand of CLPTM1 (protein)
chain: ARNGDHCPLGPGRCCRLHTVRASLEDLGWADWVLSPREVQVTMCIGACPSQFRAANMHAQIKTSLHRLKPDTVPAPCCVPASYNPMVLIQKTDTGVSLQTYDDLLAKDCHCI

Experiments:
TGFb3 = target: T1, TGFb3 (Homo sapiens, UniProt P10600); assay: ELISA binding of ligand to immobilized CLPTM1 peptide fragments; conditions: biotinylated peptide immobilized at 1 μM; ligand 100 ng/ml; OD 450-620 measured
T1 construct: purchased Abcam
T1 sequence (P10600 301-412 limits assumed): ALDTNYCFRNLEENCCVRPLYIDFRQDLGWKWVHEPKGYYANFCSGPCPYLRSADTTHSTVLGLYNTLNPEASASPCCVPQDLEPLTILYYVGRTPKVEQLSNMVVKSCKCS
Procedure: (§1) Biotinylated synthetic peptide fragments from CLPTM1 (JPT peptides, Germany) were immobilized in a streptavidin 96 well plate (#15500 Pierce) at 1 μM in PBS over night at +4° C. Plate was then washed 4 times in 300 μl PBS with 0.05% tween-20 (wash buffer). The plate was then blocked with PBS 1% BSA and 0.05% tween-20 (blocking buffer) for 1.5 hours at room temperature, then washed 4 times in wash buffer. Ligands GDF15, TGFb1, TGFb2 and TGFb3 (Abcam) were added in blocking buffer at 100 ng/ml and incubated at room temperature for 2 hours. The plate was then washed 8 times in 300 μL wash buffer with 2× NaCl. An anti-GDF15 antibody was added at 1 μg/ml (R&D Systems, goat polyclonal) or a pan-specific anti-TGFb antibody (R&D Systems, mouse 1 D11), and the plate incubated in blocking buffer for 1 hour at room temperature followed by washing with 4×300 μl wash buffer. HAF017 anti-goat-HRP antibody (to detect the anti-GDF15 antibody) or Santa Cruz sc-2005 Goat anti-mouse-HRP (to detect the pan-specific anti-TGFb antibody) was added and the plate incubated for 1 hour in blocking buffer followed by a wash. TMB substrate was added and stopped after 15 minutes with H2SO4. OD 450-620 was measured in an ELISA reader.

GDF15 = target: T2, GDF15 (Homo sapiens, UniProt Q99988); assay: as above; conditions: biotinylated peptide immobilized at 1 μM; ligand 100 ng/ml; OD 450-620 measured
T2 construct: purchased Abcam
T2 sequence (Q99988 195-308): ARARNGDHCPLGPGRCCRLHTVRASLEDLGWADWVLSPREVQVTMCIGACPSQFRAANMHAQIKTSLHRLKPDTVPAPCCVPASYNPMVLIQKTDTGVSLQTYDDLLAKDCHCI
Procedure: as §1

TGFb1 = target: T3, TGFb1 (Homo sapiens, UniProt P01137); assay: as above; conditions: biotinylated peptide immobilized at 1 μM; ligand 100 ng/ml; OD 450-620 measured
T3 construct: purchased Abcam
T3 sequence (P01137 279-390 limits assumed): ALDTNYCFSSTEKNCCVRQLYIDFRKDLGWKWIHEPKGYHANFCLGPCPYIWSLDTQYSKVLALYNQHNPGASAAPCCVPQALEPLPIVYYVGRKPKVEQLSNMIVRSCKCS
Procedure: as §1

TGFb2 = target: T4, TGFb2 (Homo sapiens, UniProt P61812); assay: as above; conditions: biotinylated peptide immobilized at 1 μM; ligand 100 ng/ml; OD 450-620 measured
T4 construct: purchased Abcam
T4 sequence (P61812 303-414 limits assumed): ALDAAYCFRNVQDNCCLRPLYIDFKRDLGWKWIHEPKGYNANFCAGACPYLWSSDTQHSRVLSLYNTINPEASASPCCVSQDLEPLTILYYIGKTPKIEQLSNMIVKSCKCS
Procedure: as §1

TGF-β proteins = assay: ELISA of Example 1, binding; conditions: result in words
Procedure: as §1

M2 polarized macrophages = assay: isPLA of TBK1 after ligand stimulation; format: cell-based, human; conditions: 10 ng/ml o/n, vs untreated control
Procedure: Human primary M2 polarized macrophages was derived from PBMC obtained from healthy volunteer blood donors. CD14+ cells were isolated using an EasySep CD14 Positive Selection Kit, maintained in RPMI-1640 medium supplemented with 10% FBS, L-Glutamine and Pen-strep. Cells were cultivated for 6 days in the presence of 50 ng/ml recombinant macrophage colony-stimulating factor (M-CSF, R&D Systems) in order to polarize the cells towards an M2 subtype.
For in situ proximity ligation assay (isPLA) experiments the cells were re-plated into 8-well slides (Lab-Tek™ II Chamber Slides, Thermo Fisher).
Cells were stimulated with either TGFB1, TGFB2, TGFB3 at 10 ng/ml. For isPLA, new medium was added, with individual ligands added to separate wells, and the cells incubated o/n prior to fixation in 3% formaldehyde solution for 20 minutes on ice the following day. Fixed cells were washed extensively in PBS and lysed in PBS with 1% Triton at room temperature for 20 minutes. The cells were blocked with Duolink blocking solution (Sigma) and primary antibodies at 1 μg/ml were added o/n. […] The slides were analysed using a Zeiss inverted epiflouroscence microscope set at 20× magnification. DAPI, FITC and CY3.5 channels were recorded. […]

PBMC = assay: Proseek secreted proteins, PBMC culture; format: cell-based
Procedure: Secreted proteins from cell cultures where quantified using multiplexed proximity extension assay, Proseek (Assarsson E et al PlosOne 2014) by Olink Proteomics AB (Uppsala Sweden). Data is presented as Normalized Protein Expression (NPX log 2-scale). The Oncology I v2 92-plex panel was run.
A cell suspension of heparinized peripheral blood was diluted 1:1 and placed on a Ficoll Paque Plus. Cells were centrifuged at 400×g for 30 minutes and the PBMC layer was transferred to a 50 ml tube of PBS and centrifuged for 7 min at 250×g.

MCF7 cells = assay: Proseek secreted proteins, MCF7 culture; format: cell-based, human; conditions: FIG. 6A: exosomes from MCF7 cells, GDF15 1.5 μg/ml 1 hr
Procedure: Secreted proteins from cell cultures where quantified using multiplexed proximity extension assay, Proseek (Assarsson E et al PlosOne 2014) by Olink Proteomics AB (Uppsala Sweden). Data is presented as Normalized Protein Expression (NPX log 2-scale). The Oncology I v2 92-plex panel was run. MCF7 cells were cultured in serum-free conditions (No FBS added to DMEM) overnight prior to ligand stimulation, and media was replaced 3 times before stimulation to avoid exosomes from FBS. Cells were either treated with control (PBS) or biologically active GDF15 (Abcam) at 1.5 μg/ml for 1 hr at 37° C. For analyses of exosomes in FIG. 6A, conditioned medium was pre-cleared by centrifugation at 14,000×g for 10 min at 4° C., followed by filtration with a […] filter to avoid contaminants from cell debris, followed by ultracentrifugation at 100,000×g for 2 hrs. Pelleted exosome fraction was lysed with 1% Triton X-100 at 4° C., samples diluted in order to have 0.3% Triton concentration and analysed by Proseek multiplex panel as described above.

Molecule | ELISA OD450 TGFb3 (TGFb3) | ELISA OD450 GDF15 (GDF15) | ELISA OD450 TGFb1 (TGFb1) | ELISA OD450 TGFb2 (TGFb2) | binding to TGF-β proteins (TGF-β proteins) | TBK1 level (M2 polarized macrophages) | HB-EGF secretion (PBMC) | IFNγ expression (PBMC) | Midkine (MK) expression (MCF7 cells)
36 (DTLMNLHVYISEHEHFTDFNATSALFWEQHDLVYGDWTSG; listed as Homo sapiens) [compound 36] | 0.095 | – | – | – | – | – | – | – | –
38 (VSGDYYPIIYFNDYWNLQKDYYPINESLASLPLRVSFC; listed as Homo sapiens) [compound 38] | 0.091 | – | – | – | – | – | – | – | –
ARSAVVAAGGGSSGQVTSNGSIGRDPPAETQPQNPPAQPA (listed as Homo sapiens) [SEQ ID NO: 34] | 0.018 | 0.220 | 0.043 | 0.025 | – | – | – | – | –
DTLMNLHVYISEHEHFTDFNATSALFWEQHDLVYGDWTSG (listed as Homo sapiens) [SEQ ID NO: 36] | 0.019 | 0.023 | 0.010 | 0.006 | binds | – | – | – | –
GDYYPIIYFNDYWNLQKDYYG (listed as Homo sapiens) [SEQ ID NO: 28] | 0.065 | 0.140 | 0.152 | 0.019 | binding | – | – | – | –
KALYRRLATVHMSRMINKYKG (listed as Homo sapiens) [SEQ ID NO: 17] | 0.0060 | 0.042 | 0.026 | 0.013 | binding | – | – | – | –
LDQYVKFDAVSGDYYPIIYFG (listed as Homo sapiens) [SEQ ID NO: 21] | 0.020 | 0.034 | 0.022 | 0.002 | binding | – | – | – | –
LWRWQLYAAQSTKSPWNFLGDELYEQSDEEQDSVKVALLETNP (listed as Homo sapiens) [SEQ ID NO: 33] | 0.011 | 0.033 | 0.013 | 0.008 | – | – | – | – | –
NAWQVIKGVLFRIFIIWAISSWFRRGPAPQDQAGPGGA (listed as Homo sapiens) [SEQ ID NO: 35] | 0.151 | 0.507 | 1.536 | 0.164 | – | – | – | – | –
PLDQYVKFDAVSGDYYPIIYFNDYWNLQKDYYPINESLA (listed as Homo sapiens) [SEQ ID NO: 39] | 0.300 | 0.779 | 2.102 | 1.630 | favourable binding | – | – | – | –
SGDYYPIIYFNDYWNLQKDYYPINESLA (listed as Homo sapiens) [SEQ ID NO: 40] | 0.007 | 0.021 | 0.177 | 0.009 | favourable binding | – | – | – | –
SGDYYPIIYFNDYWNLQKDYYPINESLASLPLRVSFCPLS (listed as Homo sapiens) [SEQ ID NO: 32] | 0.014 | 0.022 | 0.010 | 0.007 | favourable binding | – | – | – | –
TGFb1: TGF-β isoform 1, ligand for CLPTM1 | – | – | – | – | – | reduced | – | – | –
TKSGFHPDPRQKALYRRLATVHMSRMINKYKRRRFQKTKN (listed as Homo sapiens) [SEQ ID NO: 37] | 0.041 | 0.055 | 0.015 | 0.009 | binding has also been observed | – | – | – | –
VSGDYYPIIYFNDYWNLQKDYYPINESLASLPLRVSFC (listed as Homo sapiens) [SEQ ID NO: 38] | 0.029 | 0.061 | 0.032 | 0.014 | favourable binding | – | – | – | –
YPINESLASLPLRVSFCPLSG (listed as Homo sapiens) [SEQ ID NO: 27] | 0.068 | 0.098 | 0.011 | 0.005 | binding | – | – | – | –
B1 | – | – | – | – | – | – | increased | reduced | increased

Reference: patent US11406665B2, “Therapeutic peptides that target TGF-beta interaction” (GENAGON THERAPEUTICS AB, priority 2017, dated 2022)
